Reference: patent US20070059304A1 (Pfizer, published 2007)
Values belong to the molecule of their own block, whether it stands above or below them.

Experiments:
[1] = molecular target: human TrkC expressed on HEK-293 cells (human) (UniProt Q16288); assay: cell-based or functional assay
[2] = molecular target: human TrkA expressed on HEK-293 cells (human) (UniProt P04629); assay: cell-based or functional assay
[3] = molecular target: human TrkB (full length), expressed on the surface of HEK-293 cells (human, UniProt Q16620 32-822); assay: cell-based or functional assay
[4] = molecular target: T1, rhTrkB-EDC-Fc: recombinant protein that includes the extracellular domain of human TrkB fused to the Fc … (human, UniProt Q16620 32-430); assay: ELISA on coated rhTrkB-EDC-Fc (ED50)
T1 construct: bought (R&D system, Cat. No. 688-TK); also called human TrkB (ELISA); not shown: Fc region of human IgG1

[5] = molecular target: T1, rhTrkB-EDC-Fc: recombinant protein that …; assay: competition ELISA: rhTrkB-EDC-Fc binding to coated BDNF

Sequence of human TrkB (full length), expressed on the surface of HEK-293 cells (Q16620 other isoform, or with tags, fused parts or gaps limits assumed): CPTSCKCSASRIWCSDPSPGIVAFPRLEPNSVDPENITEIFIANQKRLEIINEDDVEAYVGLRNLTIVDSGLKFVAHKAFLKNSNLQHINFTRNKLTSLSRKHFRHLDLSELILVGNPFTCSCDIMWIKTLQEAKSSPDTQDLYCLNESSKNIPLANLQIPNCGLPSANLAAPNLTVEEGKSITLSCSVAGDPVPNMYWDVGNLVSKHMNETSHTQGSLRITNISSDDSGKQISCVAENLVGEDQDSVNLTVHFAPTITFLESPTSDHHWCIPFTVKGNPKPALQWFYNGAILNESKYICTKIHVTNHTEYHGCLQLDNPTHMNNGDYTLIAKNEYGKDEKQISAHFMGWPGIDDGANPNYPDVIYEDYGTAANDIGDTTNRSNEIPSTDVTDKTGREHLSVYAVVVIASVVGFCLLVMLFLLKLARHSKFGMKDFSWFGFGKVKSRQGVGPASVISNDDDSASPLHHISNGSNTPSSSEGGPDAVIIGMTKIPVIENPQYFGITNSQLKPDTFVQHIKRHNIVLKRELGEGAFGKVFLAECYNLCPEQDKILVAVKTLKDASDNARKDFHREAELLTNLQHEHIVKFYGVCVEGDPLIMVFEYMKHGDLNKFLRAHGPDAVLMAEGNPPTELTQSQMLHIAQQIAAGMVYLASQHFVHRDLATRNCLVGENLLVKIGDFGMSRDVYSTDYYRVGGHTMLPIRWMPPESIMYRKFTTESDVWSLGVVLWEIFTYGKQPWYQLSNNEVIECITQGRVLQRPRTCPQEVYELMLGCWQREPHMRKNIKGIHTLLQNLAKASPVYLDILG
T1 sequence (Q16620 32-430): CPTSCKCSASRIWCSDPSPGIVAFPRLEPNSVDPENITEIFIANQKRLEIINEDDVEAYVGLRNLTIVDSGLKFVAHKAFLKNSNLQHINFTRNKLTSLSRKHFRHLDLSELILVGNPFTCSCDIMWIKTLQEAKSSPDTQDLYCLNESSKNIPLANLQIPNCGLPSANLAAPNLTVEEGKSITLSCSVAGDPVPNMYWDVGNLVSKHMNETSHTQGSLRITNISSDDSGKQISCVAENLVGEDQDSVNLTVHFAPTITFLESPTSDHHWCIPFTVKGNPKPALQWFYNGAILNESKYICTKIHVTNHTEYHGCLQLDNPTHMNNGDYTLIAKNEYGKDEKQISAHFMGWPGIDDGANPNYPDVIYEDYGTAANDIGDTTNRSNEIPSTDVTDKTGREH
Sequence of human TrkC expressed on HEK-293 cells (human) (Q16288 32-839 S70N limits assumed): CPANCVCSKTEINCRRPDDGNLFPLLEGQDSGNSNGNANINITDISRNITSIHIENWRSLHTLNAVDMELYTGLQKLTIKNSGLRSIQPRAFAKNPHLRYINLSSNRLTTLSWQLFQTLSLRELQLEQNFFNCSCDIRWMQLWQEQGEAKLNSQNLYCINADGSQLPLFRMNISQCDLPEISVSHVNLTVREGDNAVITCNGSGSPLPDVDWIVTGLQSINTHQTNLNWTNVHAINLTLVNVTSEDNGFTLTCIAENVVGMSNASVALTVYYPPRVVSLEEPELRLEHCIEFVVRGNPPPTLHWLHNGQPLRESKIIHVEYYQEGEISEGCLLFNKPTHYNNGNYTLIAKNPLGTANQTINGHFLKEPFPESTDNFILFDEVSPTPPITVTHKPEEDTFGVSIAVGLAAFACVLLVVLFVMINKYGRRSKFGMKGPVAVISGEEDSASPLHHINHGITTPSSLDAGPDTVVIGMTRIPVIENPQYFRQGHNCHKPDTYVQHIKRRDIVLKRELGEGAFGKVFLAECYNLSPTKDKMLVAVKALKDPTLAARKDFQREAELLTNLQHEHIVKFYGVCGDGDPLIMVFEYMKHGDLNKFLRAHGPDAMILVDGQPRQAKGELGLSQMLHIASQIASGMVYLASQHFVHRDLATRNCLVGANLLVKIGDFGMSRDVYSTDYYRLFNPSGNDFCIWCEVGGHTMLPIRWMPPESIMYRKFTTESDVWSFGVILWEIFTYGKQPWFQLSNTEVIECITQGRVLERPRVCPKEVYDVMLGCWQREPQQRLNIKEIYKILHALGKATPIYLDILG
Sequence of human TrkA expressed on HEK-293 cells (human) (P04629 33-796 limits assumed): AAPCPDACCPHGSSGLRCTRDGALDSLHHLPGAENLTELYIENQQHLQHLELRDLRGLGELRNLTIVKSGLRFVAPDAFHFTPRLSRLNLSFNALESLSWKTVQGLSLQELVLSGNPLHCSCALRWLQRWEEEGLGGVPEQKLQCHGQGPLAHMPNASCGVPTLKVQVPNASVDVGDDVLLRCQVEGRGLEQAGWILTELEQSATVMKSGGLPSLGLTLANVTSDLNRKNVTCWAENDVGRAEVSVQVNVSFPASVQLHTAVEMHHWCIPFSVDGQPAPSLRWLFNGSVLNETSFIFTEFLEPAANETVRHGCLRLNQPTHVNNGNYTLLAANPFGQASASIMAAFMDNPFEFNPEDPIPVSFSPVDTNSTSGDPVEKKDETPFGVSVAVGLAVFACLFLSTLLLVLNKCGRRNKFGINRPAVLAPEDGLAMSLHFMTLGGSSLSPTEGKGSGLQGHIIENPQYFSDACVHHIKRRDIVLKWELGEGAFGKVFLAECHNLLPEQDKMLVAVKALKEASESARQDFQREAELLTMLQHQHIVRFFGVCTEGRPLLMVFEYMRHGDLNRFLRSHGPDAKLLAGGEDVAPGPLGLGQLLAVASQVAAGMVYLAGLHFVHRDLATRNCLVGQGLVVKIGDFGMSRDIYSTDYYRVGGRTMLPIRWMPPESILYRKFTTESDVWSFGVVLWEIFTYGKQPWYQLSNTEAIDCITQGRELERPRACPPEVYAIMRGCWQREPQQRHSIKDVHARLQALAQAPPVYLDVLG

TrkC luciferase assay: signal at 300 ng/ml NT-3 (fold over basal) [1]: 6
Molecule: NT-3 (ligand)

TrkA luciferase assay: signal at 300 ng/ml NGF (fold over basal) [2]: 6
Molecule: NGF (ligand)

luciferase assay, HEK-293 cells expressing rhTrkB: signal at 200 ng/ml BDNF [3]: 6.2 fold over basal
B1: BDNF (ligand, UniProt P23560 129-247, looked up)
chain: HSDPARRGELSVCDSISEWVTAADKKTAVDMSGGTVTVLEKVPVSKGQLKQYFYETKCNPMGYTKEGCRGIDKRHWNSQCRTTQSYVRALTMDSKKRIGWRFIRIDTSCVCTLTIKRGR

EC50 [4]: 0.017 nM
IC50 [5]: 0.3 nM
luciferase assay, HEK-293 cells expressing rhTrkB: EC50 [3]: ~0.1 nM
B2: 4C7 (antibody)
chain 1: QVQLVQSGAEVKKPGASVKVSCKASGYTFTNYVILWVRQAPGQGLEWMGYINPYNDGTKYNEKFKGRVTMTRDTSTSTVYMELSSLRSEDTAVYYCARLLKYRRFSYYAIDYWGQGTTVTVSS
chain 2: DIQMTQSPSSLSASVGDRVTITCRASENVYSNLAWYQQKPGKAPKLLIYAASNLQSGVPSRFSGSGSGTDFTFTISSLQPEDIATYYCQHFWGSPFTFGQGTKLEIK
